Substitutions are numbered along the chain they refer to. Names and notes keep the numbering of the source.
B1: VH4/VL2 Fab fragment (Fab, V domains shown)
VH: EVQVVQSGGGLVKPGESLRLSCKASGYTFTSYWMHWVKQAPGKGLEWVGAIYPGNSDTSYNQKFKGKFTISADTSPNTAYLQMNSLKTEDTAVYYCTTTTYGYDWFAYWGQGTLVTVSS
VL: NIQMTQSPSSLSASVGDRVTMSCKSSQSVLYSSNQKNYLAWYQQKPGKSPKLLIYWASTRESGVPDRFTGSGSGTDFTLTISSLQPEDFATYYCHQYLSSLTFGQGTKLEIK
notes: also called H4/L2 (Fab source); H4L2 hIgG1 Fab
B2: ALULA-H4/L2-IgG4.P(S228P)/IgG1(N297Q) (antibody, V domains shown)
VH: B1 VH
VL: NIQMTQSPSSLSASVGDRVTMSCKSSQSVLYSSNQKNYLAWYQQKPGKSPKLLIYWASTRESGVPDRFTGSGSGTDFTLTISSLQPEDFATYYCHQYLSSLTFGQGTKLEIKR
notes: Hybrid aglycosylated IgG4.P (S228P)/IgG1 (N297Q) heavy chain, human kappa light chain; also called VH4/VL2 (Agly-IgG4P/G1); H4/L2 antibody
B3: VH4/VL0 Agly-IgG4.P (S228P)/IgG1 (N297Q) (antibody, V domains shown)
VH: B1 VH
VL: B2 VL with N1D, L11V, M21I, S22T, S49A, D66S, T69S, L109V
notes: also called VH4/VL0 (Agly-IgG4P/G1); H4/L0
B4: VH5/VL2 Agly-IgG4.P (S228P)/IgG1 (N297Q) (antibody, V domains shown)
VH: B1 VH with V5Q, E16G, F68A, I70L, D73V
VL: B2 VL
notes: also called VH5/VL2 (Agly-IgG4P/G1); H5/L2
B5: Mouse chimeric ALULA (murine ALULA variable domains fused to human IgG1 heavy chain and human kappa light chain domains) (antibody, V domains shown)
VH: EVQVQQSGTVLARPGASVKMSCKASGYTFTSYWMHWVKQRPGQGLEWIGAIYPGNSDTSYNQKFKGKAKLTAVTSPNTAYMELSSLTNEDSAVYYCTTTTYGYDWFAYWGQGTLVTVSA
VL: NIMMTQSPSSLTVSAGEKVTMSCKSSQSVLYSSNQKNYLAWYQQKPGQSPKLLIYWASTRESGVPDRFTGSGSGTDFTLTISSVQAEDLAVYYCHQYLSSLTFGAGTKLELK
notes: also called chimeric form of ALULA; chimeric murine antibody

Key:
[1] = biological target: T1, human αvβ5 expressed on BaF3 cells (stably transfected with human αv and β5 subunits) (human, UniProt P06756 31-1048; P18084 24-799); experiment: FACS binding curves on αvβ5-BaF3 cells, 10,000 cells/experiment; monovalent Fab, not mAb
T1 construct: also called αvβ5-BaF3; BaF3-hu αvβ5
T1 sequence (P06756 31-1048 limits assumed, chain 1 of 2): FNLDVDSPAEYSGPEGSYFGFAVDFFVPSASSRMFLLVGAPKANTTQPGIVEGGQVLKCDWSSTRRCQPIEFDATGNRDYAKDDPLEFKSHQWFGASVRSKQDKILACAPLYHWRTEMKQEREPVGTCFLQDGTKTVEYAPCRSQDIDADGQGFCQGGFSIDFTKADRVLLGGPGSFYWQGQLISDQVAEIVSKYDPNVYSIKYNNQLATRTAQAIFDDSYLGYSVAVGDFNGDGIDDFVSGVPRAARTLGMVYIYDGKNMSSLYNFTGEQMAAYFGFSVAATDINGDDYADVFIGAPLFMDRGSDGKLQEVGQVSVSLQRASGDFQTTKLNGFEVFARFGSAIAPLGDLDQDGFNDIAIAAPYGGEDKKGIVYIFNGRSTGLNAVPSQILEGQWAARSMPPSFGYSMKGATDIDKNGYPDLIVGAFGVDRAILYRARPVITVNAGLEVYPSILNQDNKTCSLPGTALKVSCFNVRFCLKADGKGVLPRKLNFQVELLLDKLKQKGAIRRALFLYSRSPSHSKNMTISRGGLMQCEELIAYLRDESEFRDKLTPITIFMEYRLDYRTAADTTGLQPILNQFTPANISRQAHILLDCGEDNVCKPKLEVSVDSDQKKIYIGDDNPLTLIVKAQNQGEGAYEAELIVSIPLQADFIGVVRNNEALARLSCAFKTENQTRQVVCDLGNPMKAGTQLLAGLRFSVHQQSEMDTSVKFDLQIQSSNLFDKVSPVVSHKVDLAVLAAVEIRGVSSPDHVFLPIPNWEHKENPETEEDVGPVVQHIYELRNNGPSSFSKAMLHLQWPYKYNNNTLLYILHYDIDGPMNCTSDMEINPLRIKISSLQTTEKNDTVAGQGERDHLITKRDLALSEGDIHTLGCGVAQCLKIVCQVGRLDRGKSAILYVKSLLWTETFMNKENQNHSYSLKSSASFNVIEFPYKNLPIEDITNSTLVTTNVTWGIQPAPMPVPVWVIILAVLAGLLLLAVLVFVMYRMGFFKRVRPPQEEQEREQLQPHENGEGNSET
T1 sequence (P18084 24-799 limits assumed, chain 2 of 2): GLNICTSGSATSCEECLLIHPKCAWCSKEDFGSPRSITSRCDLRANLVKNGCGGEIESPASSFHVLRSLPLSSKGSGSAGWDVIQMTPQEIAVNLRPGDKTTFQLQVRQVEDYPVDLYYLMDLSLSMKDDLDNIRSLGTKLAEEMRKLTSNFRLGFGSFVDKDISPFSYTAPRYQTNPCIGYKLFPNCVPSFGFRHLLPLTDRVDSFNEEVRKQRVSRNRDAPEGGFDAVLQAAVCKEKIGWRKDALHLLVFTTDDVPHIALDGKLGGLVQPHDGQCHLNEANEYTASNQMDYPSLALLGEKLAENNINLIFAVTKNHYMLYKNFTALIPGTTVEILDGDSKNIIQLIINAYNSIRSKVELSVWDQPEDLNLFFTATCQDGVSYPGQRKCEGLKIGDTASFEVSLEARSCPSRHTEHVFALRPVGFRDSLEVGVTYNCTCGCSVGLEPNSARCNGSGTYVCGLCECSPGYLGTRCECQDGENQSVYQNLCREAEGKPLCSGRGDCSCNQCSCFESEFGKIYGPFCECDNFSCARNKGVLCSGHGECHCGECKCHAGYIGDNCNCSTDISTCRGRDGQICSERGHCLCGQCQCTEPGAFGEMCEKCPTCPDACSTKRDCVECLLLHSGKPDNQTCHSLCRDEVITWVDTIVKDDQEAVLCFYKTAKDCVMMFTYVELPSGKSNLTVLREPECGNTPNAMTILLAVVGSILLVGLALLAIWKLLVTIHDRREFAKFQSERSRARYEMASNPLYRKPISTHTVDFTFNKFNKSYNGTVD
Experimental: (§1) This experiment was carried out to confirm the affinity of ALULA-H4/L2-IgG4.P(S228P)/IgG1(N297Q) for cell surface expressed αvβ5 stably expressed on murine BaF3 cells. Binding curves were generated using a lower number of cells to ensure that antibody was not simply titrating the receptors on the cell.

[2] = biological target: T2, human soluble αvβ5 protein (extracellular domains of human αv and β5 integrin subunits) (human, UniProt P06756 31-992; P18084 24-719); experiment: ELISA, Fab blocking of 2 nM soluble αvβ5 binding to immobilized human plasma vitronectin
T2 construct: also called biotin-αvβ5; hsαvβ5
T2 sequence (P06756 31-992 limits assumed, chain 1 of 2): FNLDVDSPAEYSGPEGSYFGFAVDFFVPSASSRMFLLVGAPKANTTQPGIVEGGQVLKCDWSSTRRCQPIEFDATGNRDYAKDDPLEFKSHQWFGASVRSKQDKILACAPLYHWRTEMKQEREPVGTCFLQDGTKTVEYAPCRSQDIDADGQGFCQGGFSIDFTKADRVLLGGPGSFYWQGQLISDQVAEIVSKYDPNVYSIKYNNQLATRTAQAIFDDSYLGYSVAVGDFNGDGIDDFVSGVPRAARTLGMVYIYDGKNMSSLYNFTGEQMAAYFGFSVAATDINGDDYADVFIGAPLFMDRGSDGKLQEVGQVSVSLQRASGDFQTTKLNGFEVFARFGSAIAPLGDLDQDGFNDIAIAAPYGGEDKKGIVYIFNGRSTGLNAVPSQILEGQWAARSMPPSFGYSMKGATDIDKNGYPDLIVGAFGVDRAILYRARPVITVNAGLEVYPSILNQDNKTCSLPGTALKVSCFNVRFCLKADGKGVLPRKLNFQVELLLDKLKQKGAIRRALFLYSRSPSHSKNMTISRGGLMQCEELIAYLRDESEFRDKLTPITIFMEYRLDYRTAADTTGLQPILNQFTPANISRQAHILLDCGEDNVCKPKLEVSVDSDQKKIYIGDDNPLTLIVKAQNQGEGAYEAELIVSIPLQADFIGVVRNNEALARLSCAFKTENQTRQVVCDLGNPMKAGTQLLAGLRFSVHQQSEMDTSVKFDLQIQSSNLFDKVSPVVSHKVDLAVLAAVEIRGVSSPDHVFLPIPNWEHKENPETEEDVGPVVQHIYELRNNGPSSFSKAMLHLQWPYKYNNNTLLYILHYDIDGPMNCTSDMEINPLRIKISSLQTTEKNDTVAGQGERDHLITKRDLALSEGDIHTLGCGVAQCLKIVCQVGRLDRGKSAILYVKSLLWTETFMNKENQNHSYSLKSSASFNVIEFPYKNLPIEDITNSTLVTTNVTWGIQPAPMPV
T2 sequence (P18084 24-719 limits assumed, chain 2 of 2): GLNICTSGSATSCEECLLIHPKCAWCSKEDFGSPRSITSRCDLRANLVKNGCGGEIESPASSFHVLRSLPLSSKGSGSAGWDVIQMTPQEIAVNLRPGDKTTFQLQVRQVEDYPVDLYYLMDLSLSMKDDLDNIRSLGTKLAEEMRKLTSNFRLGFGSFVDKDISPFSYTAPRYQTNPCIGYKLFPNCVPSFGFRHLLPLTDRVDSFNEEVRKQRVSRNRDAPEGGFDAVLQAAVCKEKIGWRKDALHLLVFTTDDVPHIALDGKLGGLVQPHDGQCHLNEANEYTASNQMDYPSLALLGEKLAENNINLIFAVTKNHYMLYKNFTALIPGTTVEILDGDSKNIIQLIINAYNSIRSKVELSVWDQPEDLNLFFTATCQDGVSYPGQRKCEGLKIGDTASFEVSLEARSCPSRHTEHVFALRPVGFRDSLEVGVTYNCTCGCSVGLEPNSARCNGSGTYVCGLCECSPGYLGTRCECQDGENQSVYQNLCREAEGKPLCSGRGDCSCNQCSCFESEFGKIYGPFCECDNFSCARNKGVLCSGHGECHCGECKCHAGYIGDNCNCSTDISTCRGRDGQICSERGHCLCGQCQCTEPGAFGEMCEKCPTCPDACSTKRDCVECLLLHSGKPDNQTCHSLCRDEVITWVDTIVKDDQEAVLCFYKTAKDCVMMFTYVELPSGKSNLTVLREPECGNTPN
Experimental: Fab fragments of the four constructs of Example 6 were generated from the corresponding IgG1(N297Q) versions by digestion with papain. The ability of each Fab to block 2 nM soluble αvβ5 binding to immobilized human plasma vitronectin was determined by ELISA.

[3] = biological target: T2, human soluble αvβ5 protein …; experiment: ELISA, purified hsαvβ5 coated at 2 µg/mL, anti-human IgG-HRP detection
Experimental: Purified hsαvβ5 protein was coated directly on a 96-well ELISA plate at 2 μg/mL, and H4/L2 antibody binding was detected using a horseradish peroxidase conjugated donkey anti-human IgG polyclonal antibody. In this format, the EC₅₀ of the H4/L2 antibody for αvβ5 was about 65 pM.

[4] = biological target: cynomolgus monkey αvβ5 expressed on BaF3 cells (cynomolgus monkey, UniProt A0A2K5WCD3 31-1048; A0A2K5UEB4 24-799); experiment: cell-based or functional assay
[5] = biological target: T1, human αvβ5 expressed on BaF3 cells …; experiment: cell-based or functional assay
[6] = biological target: T2, human soluble αvβ5 protein …; experiment: ALULA competition ELISA on soluble human αvβ5
Experimental: Competition ELISA: A 96-well microtiter plate was coated with 50 μl/well of 5 μg/mL soluble human αvβ5 protein at 4° C. overnight. The plate was washed with wash buffer (0.05% Tween-20 in PBS) four times in an automated plate washer. 300 μl/well of 1% BSA in PBS was added and incubated for 1 hr at 25° C. to block nonspecific binding. The plate was washed as above, and dilutions of humanized antibodies mixed with 1 nM murine ALULA in PBS containing 1% BSA, were added (50 μl/well). The plate was incubated for 1 hr at 25° C., washed, and then incubated for 40 minutes with 100 μl/well of […] goat anti-mouse antibody. Bound antibody was detected using 3,3′,5,5′-tetramethylbenzidine (TMB). Binding was indicated by the absorbency measured at 450 nm.
(§2) Based on the results described above in Example 4, four humanized ALULA constructs: VH2/VL2, VH4/VL0, VH4/VL2, and VH5/VL2, were selected for further testing. These VH/VL constructs were expressed as fusion proteins with the hybrid, aglycosylated IgG4.P (S228P)/IgG1 (N297Q) domain, and human kappa light chain domain, and purified from the conditioned medium of stably transfected CHO cells. Each humanized ALULA construct was assessed for binding using competition ELISA with murine ALULA and by FACS using human αvβ5-transfected BaF3 cells. Each humanized ALULA construct was also assessed for blocking binding/adhesion to vitronectin by ELISA or cell adhesion assays using BaF3 cells stably transfected with human or cynomolgous monkey αvβ5. The humanized ALULA constructs were compared to a chimeric form of ALULA comprising the murine heavy and light chain variable domains fused to human IgG1 heavy chain and human kappa light chain domains. The four humanized ALULA constructs behaved similarly in the assays, with H4/L2 generally having similar or slightly higher affinity/blocking potency than the other constructs (see, Table 3).

[7] = biological target: T1, human αvβ5 expressed on BaF3 cells …; experiment: flow cytometry on BaF3 cells co-transfected with human αv and human β5
Experimental: The binding of the H4/L2 antibody (SEQ ID NOs.: 69 and 70) to αvβ5 expressed on the cell surface was determined using flow cytometry on BaF3 cells stably co-transfected with human αv and human β5 integrin subunits. BaF3 cells are a murine IL-3 dependent hematopoietic cell line of indeterminate origin. These cells endogenously express mouse alpha-V (as well as alpha-4, alpha-5, and beta-1 integrins) but no beta-5 or beta-6 integrin.
The H4/L2 antibody was added to cells in FACS Buffer (PBS, 1% BSA, 1 mM CaCl₂, 1 mM MgCl₂) for 30 minutes on ice. After washing, bound antibody was detected with an anti-human-Alexa Fluor® 488 secondary antibody. Cells fixed in 1% paraformaldehyde were collected on a FACS Calibur and mean fluorescence intensity was analyzed using FlowJo software.

[8] = biological target: T2, human soluble αvβ5 protein …; experiment: αvβ5-vitronectin blocking ELISA
Experimental: Vitronectin Inhibition ELISA: 96-well microtiter plates were coated with 5 μg/ml purified human plasma vitronectin diluted in PBS (50 μl/well) at 4° C. overnight. After the coating solution was removed, the plates were blocked with 300 μl/well of 1% BSA/TBS at 25° C. for 1 hr. The plate was washed with wash buffer (0.05% Tween-20 in TBS containing 1 mM CaCl₂ and 1 mM MgCl₂), and dilutions of humanized antibodies mixed with 1 nM soluble αvβ5 protein in TBS containing 1% BSA, 1 mM CaCl₂ and 1 mM MgCl₂ were added (50 μl/well) and incubated at 25° C. for 1 hr. The plate was washed 4 times with wash buffer in an automated plate washer and incubated sequentially with 50 μl/well of the anti-beta5 monoclonal antibody 15F11 (at 0.5 ug/mL) in for 1 hr at 25° C. in TBS containing 1% BSA, 1 mM CaCl₂ and 1 mM MgCl₂. After washing the plate 4 times with wash buffer, 100 μl/well of a 1:5000 dilution of a peroxidase-conjugated goat anti-mouse antibody in TBS containing 1% BSA, 1 mM CaCl₂ and 1 mM MgCl₂ were added and incubated for 1 hr at 25° C. Bound protein was detected using the TMB substrate and indicated by the absorbency measured at 450 nm.
as §2

[9] = biological target: T1, human αvβ5 expressed on BaF3 cells …; experiment: FACS binding curves on αvβ5-BaF3 cells, 10,000 cells/experiment; mAb (bivalent IgG)
Experimental: as §1

[10] = biological target: T1, human αvβ5 expressed on BaF3 cells …; experiment: FACS on BaF3-hu αvβ5 cells
Experimental: FACS Binding Assay: Cells were washed one time in PBS, and then resuspended in FACS buffer (1×PBS, 1% BSA, 1 mM CaCl₂, and 1 mM MgCl₂). 1×10⁶ cells were then incubated on ice for 1 hr in FACS buffer containing the test antibody in a total volume of 50 μl. After incubation, the cells were washed two times with ice cold FACS buffer, resuspended in 50 μl of FACS buffer containing 3 μg/ml goat anti-mouse IgG AlexaFluor488 (Jackson ImmunoResearch), and incubated on ice for 30 min. The cells were then washed twice with ice cold FACS buffer and fixed in 1% PFA overnight. Cell aggregates were removed by filtering through 40 μm filter plates (Millipore) and binding of the labeled secondary antibody was monitored by flow cytometry using a FACS Calibur (BD Biosciences).
as §2

| Binder | Kd [1] [nM] | Fold change (IC50 against mouse chimeric ALULA) [2] [fold] | IC50 [2] [nM] | EC50 [3] [nM] | BaF3-cyno αvβ5 Cell adhesion to vitronectin (IC50, nM) [4] [nM] | BaF3-cyno αvβ5 Cell adhesion to vitronectin, Fold chg. (against mouse chimeric ALULA) [4] [fold] | BaF3-hu αvβ5 Cell adhesion to vitronectin (IC50, nM) [5] [nM] | BaF3-hu αvβ5 Cell adhesion to vitronectin, Fold chg. (against mouse chimeric ALULA) [5] [fold] | Fold chg. (IC50 against mouse chimeric ALULA) [6] [fold] | IC50 [6] [nM] | EC50 [7] [nM] | Fold chg. (IC50 against mouse chimeric ALULA) [8] [fold] | IC50 [8] [nM] | Kd [9] [nM] | EC50 [10] [nM] | Fold chg. (EC50 against mouse chimeric ALULA) [10] [fold] |
| --- | --- | --- | --- | --- | --- | --- | --- | --- | --- | --- | --- | --- | --- | --- | --- | --- |
| B1 | 0.42 | 0.9 | 4.3 |  |  |  |  |  |  |  |  |  |  |  |  |  |
| B2 |  |  |  | ~0.065 | 0.32 | 0.5 | 0.1 | 0.6 | 1 | 1.84 | 3 | 0.7 | 1.06 | 0.08 | 2.92 | 0.6 |
| B3 |  |  |  |  | 0.43 | 0.7 | 0.09 | 0.5 | 1 | 1.84 |  | 1 | 1.52 |  | 2.52 | 0.5 |
| B4 |  |  |  |  | 0.63 | 1 | 0.29 | 1.7 | 1 | 1.85 |  | 0.8 | 1.24 |  | 2.9 | 0.5 |
| B5 |  |  |  |  | 0.61 |  | 0.17 |  |  | 1.81 |  |  | 1.6 |  | 5.06 |  |

Source: patent US20170362324A1 (Biogen, published 2017)
